According to the supplement of paper PMC10126150:
± gives the standard deviation of the averaged measurements.

Test system: ATP
Experiment: switch fluorescence ratio, 500 uM ATP over buffer (Cy3 cluster intensity, sum of 5 cycles each) (fold (ratio)); higher = stronger signal-on switching upon ATP binding; sequences stand for … in TCGTCGGCAGCGTCAGATGTGTATAAGAGACAGTTTTTTTTTTTTTTTTTTTTTTTTT…TC
Conditions: aptamer strand: ATP DNA aptamer (quencher-CACCTGGGGGAGTATTGCGGAGGAAGG + anchor), 100 nM annealed; ATP concentration: 500 uM
Method in brief: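 The quencher-labelled ATP aptamer, at 100 nM, was annealed to Cy3-labelled switching-strand clusters on a modified Illumina MiSeq flow-cell. The clusters were imaged in selection buffer, then after 15 min with 500 uM ATP at 22 °C, and this buffer/ATP cycle ran five times with NaOH stripping and re-annealing between runs. Per-cluster fluorescence ratios, summed target-cycle over summed buffer-cycle Cy3 intensity, were averaged per switch-domain sequence. Clusters outside 100-1000 RFU were excluded.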
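Further: ATP exposure 15 min at 22 °C before imaging.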

Sequence	switch fluorescence ratio
GGTGCTGTGT	1.01 ± 0.039
CTTTAAGCTT	0.9981 ± 0.0027
CGGCTGGCTG	1.04 ± 0.011
GATGCACCGA	1.06 ± 0.036
GGCAGTTGTG	0.986 ± 0.024
AATACCATTT	1.01 ± 0.035
TTTGACTTTC	1.07 ± 0.025
TTCGATTCGA	0.961 ± 0.011
TGTGGCCAGG	1.04 ± 0.056
GTGGGGGCCC	0.993 ± 0.017
ATAGAAAAAT	1.003 ± 0.0098
TTTTGGAGGG	1.01 ± 0.034
TATGGTTTAG	1.02 ± 0.015
TATTATGTAT	0.982 ± 0.031
GACAATTCGG	1.01 ± 0.021
TTTAGTTTTT	0.996 ± 0.042
GATGTCCCCA	0.959 ± 0.013
TTATTGGCTT	0.9895 ± 0.0037
GGTGCTAGTG	0.999 ± 0.015
TATATATTTA	0.988 ± 0.024
TGTTTCTACG	1 ± 0.056
TTAAAAAGG	1.02 ± 0.037
ACGCAGTATG	1.03 ± 0.031
TTTGGCATGC	1.11 ± 0.14
TTGTGCGGAC	1.01 ± 0.04

Sequence	switch fluorescence ratio
GGGGCCAGAA	1.012 ± 0.0029
CTGGCAGTGG	1.05 ± 0.054
GGTAACTTGG	1.01 ± 0.034
TTTACTTTTC	1.49 ± 0.75
TGGGATGTG	0.9906 ± 0.0049
ACTCGGAGCG	1.01 ± 0.038
ACCCTTTTTG	0.986 ± 0.025
TTTAATGATT	1.05 ± 0.021
TTATTATATG	0.971 ± 0.022
GTAGTGAGGA	1.02 ± 0.029
CAGGGGTGGT	1.01 ± 0.039
TCTCTGGTTA	1.01 ± 0.018
ATTGTAGTGC	0.97 ± 0.021
GGGCGGATGG	0.986 ± 0.018
AGGCTTATCG	1.02 ± 0.024
CATATAGCAC	1.18 ± 0.019
TTTGTGGTTG	0.992 ± 0.032
CGAGGTTGAC	1.0385 ± 0.00054
TTCTGGCTTT	1.16 ± 0.25
ATTTTAATGC	1.018 ± 0.0019
CGTGGGGGTT	0.973 ± 0.038
ATGCTAGGGT	0.9905 ± 0.0055
AGTGAAAATT	1 ± 0.038
GGTGCAGGAG	0.999 ± 0.035
ATAGGACAAC	1.038 ± 0.0081

Sequence	switch fluorescence ratio
CCCGGGGGT	1.13 ± 0.2
GGGGCGTAGG	1 ± 0.033
GAATGGGGTC	0.976 ± 0.011
TCCGAGGCCA	3.91 ± 3.2
GGATAGGACA	1 ± 0.04
AGATGGGCAG	0.996 ± 0.012
ATGTGAGCGG	1.01 ± 0.038
GAGGAGAAGA	1.02 ± 0.027
TGGGAACACT	1.01 ± 0.033
TGACTCCAGG	1.23 ± 0.023
CGGTATAATT	0.999 ± 0.042
TCGATAATTA	0.97 ± 0.09
TTGTAGTGGG	1.02 ± 0.048
AAGGGTAGGC	1.03 ± 0.042
ATTGAAATGG	1.02 ± 0.044
TGGGGTTAAT	0.997 ± 0.028
TGAGGCGCGG	0.97 ± 0.025
TATTGCGGTC	1.005 ± 0.0018
ATTAATTGTT	0.993 ± 0.012
TATTGCGTGG	0.9836 ± 0.0073
TATAAAATGT	0.993 ± 0.036
ACTATGTGTA	0.989 ± 0.014
AGTTTGGTCC	0.997 ± 0.035
CCCATTGGGG	1.03 ± 0.011
CTTATTAAGC	1.05 ± 0.011

Sequence	switch fluorescence ratio
CCGTAGCGTT	6.12 ± 1.5
CTGTGTATGT	1.02 ± 0.061
CGTCGACGGG	1.02 ± 0.054
GGTATGGAGG	0.988 ± 0.038
TGAGCATGGG	1 ± 0.029
GGCGGCGAGG	1.02 ± 0.011
ATTGTGCTGT	0.976 ± 0.043
TTGAACCTTT	1.02 ± 0.012
TCACGGGGGG	1.08 ± 0.1
AATGGGAAAT	0.968 ± 0.059
ATTGGGTTTG	1.01 ± 0.021
GGGGAAGGGG	1.03 ± 0.058
AGTAGAGGGA	0.995 ± 0.019
TTTCCCAATT	1.16 ± 0.16
ACGATGGTTT	0.984 ± 0.04
CGGGGTCTGG	0.978 ± 0.015
TCCCTCCCCT	1.25 ± 0.056
TTAGAGCTAG	1.07 ± 0.09
AGTTATACGG	0.995 ± 0.032
TGTTGTGGTC	0.9804 ± 0.0042
TAAAGATGAG	1.0091 ± 0.00022
AAAATCAGCC	1.07 ± 0.053
GATTTGATTG	1.002 ± 0.0033
CTAGGGGGAT	0.9962 ± 0.0043
ATGTACGCGT	0.995 ± 0.024
